We go through 1 substance from paper PMC3777832.

The test addresses xenopus Lgr4 ectodomain (residues 24-455) (xenopus). Kind of test: SEC + other: dynamic light scattering.

What is called stoichiometry N is a count of units in the complex or per binding partner.

For “xenopus Lgr4 ectodomain (residues 24-455) (domain or fragment)”, the stoichiometry N stood at 2.
